From patent US10696719B2, “Nucleoside triphosphate transporter and uses thereof” (THE SCRIPPS RESEARCH INSTITUTE, priority 2016, dated 2020) come the findings set out here.

What all share (format): cell-based
The test system of data set [1] is E. coli BL21(DE3). As to the method: (§1) Unless otherwise stated, liquid bacterial cultures were grown in 2×YT (casein peptone 16 g/L, yeast extract 10 g/L, NaCl 5 g/L) supplemented with potassium phosphate (50 mM, pH 7), referred to hereafter as “media”, and incubated at 37° C. in a 48-well flat bottomed plate (CELLSTAR, Greiner Bio-One) with shaking at 200 rpm. Solid growth media was prepared with 2% agar. Antibiotics were used, as appropriate, at the following concentrations: carbenicillin, 100 μg/mL; streptomycin, 50 μg/mL; kanamycin, 50 μg/mL; zeocin, 50 μg/mL; chloramphenicol, 33 μg/mL for plasmids, 5 μg/mL for chromosomal integrants. All selective agents were purchased commercially. Cell growth, indicated as OD600, was measured using a Perkin Elmer Envision 2103 Multilabel Reader with a 590/20 nm filter.
(§2) Doubling times for strains grown in the dATP uptake assay were calculated by doubling time as (t2−t1)/log2(OD600,2/OD600,1), averaging across three, ˜30 min time intervals roughly corresponding to 30 min prior to dATP uptake and 60 min during dATP uptake.

Data set [2] relates to E. coli C41(DE3). The experiment in a line: growth / toxicity of transporter expression. As to the method: as §1, §2
For data set [3], the system named is E. coli C41(DE3). Nature of the data set: dATP uptake assay. Here is the method: (§3) Radioactive uptake assays were conducted as described in Haferkamp, et al., “Tapping the nucleotide pool of the host: novel nucleotide carrier proteins of Protochlamydia amoebophila,” Mol. Microbiol. 60, 1534-1545 (2006) with the following modifications: C41(DE3) and BL21(DE3) strains carrying plasmid-based transporters and their appropriate empty plasmid controls, as well as BL21(DE3) chromosomal transporter integrants and their appropriate isogenic transporter-less control, were grown overnight with appropriate antibiotics (streptomycin for pCDF plasmids and chloramphenicol for pSC plasmids and integrants) in 500 μL of media. Cultures were diluted to an OD600 of 0.02 in 500 μL of fresh media, grown for 2.5 h, induced with IPTG (0-1 mM, pCDF strains only) or grown (all other strains) for 1 h, and incubated with dATP spiked with [α-^32P]-dATP (final concentration=250 μM (0.5 μCi/mL)) for ˜1 h. […]
(§4) Following incubation with dATP, 200 μL of each culture was collected through a 96-well 0.65 μm glass fiber filter plate (MultiScreen, EMD Millipore) under vacuum and washed with cold potassium phosphate (3×200 μL, 50 mM, pH 7) and cold ddH2O (1×200 μL). […] The resulting image was quantified by densitometric analysis using Image Studio Lite (LI-COR). […]

Data set [4] deals with E. coli BL21(DE3). The experiment in a line: dATP uptake assay. Here is the method:
as §3, §4

As for “T7 RNAP: T7 RNA polymerase expressed in the E. coli (DE3) host strains”, in the data set on E. coli BL21(DE3) [1], the toxicity of expression result is reported as “toxic”.

B1: PtNTT2: nucleoside triphosphate transporter from Phaeodactylum tricornutum, full length, SEQ ID NO: 1 (protein, listed as Phaeodactylum tricornutum)
chain: MRPYPTIALISVFLSAATRISATSSHQASALPVKKGTHVPDSPKLSKLYIMAKTKSVSSSFDPPRGGSTVAPTTPLATGGALRKVRQAVFPIYGNQEVTKFLLIGSIKFFIILALTLTRDTKDTLIVTQCGAEAIAFLKIYGVLPAATAFIALYSKMSNAMGKKMLFYSTCIPFFTFFGLFDVFIYPNAERLHPSLEAVQAILPGGAASGGMAVLAKIATHWTSALFYVMAEIYSSVSVGLLFWQFANDVVNVDQAKRFYPLFAQMSGLAPVLAGQYVVRFASKAVNFEASMHRLTAAVTFAGIMICIFYQLSSSYVERTESAKPAADNEQSIKPKKKKPKMSMVESGKFLASSQYLRLIAMLVLGYGLSINFTEIMWKSLVKKQYPDPLDYQRFMGNFSSAVGLSTCIVIFFGVHVIRLLGWKVGALATPGIMAILALPFFACILLGLDSPARLEIAVIFGTIQSLLSKTSKYALFDPTTQMAYIPLDDESKVKGKAAIDVLGSRIGKSGGSLIQQGLVFVFGNIINAAPVVGVVYYSVLVAWMSAAGRLSGLFQAQTEMDKADKMEAKTNKEK
Regarding B1, the toxicity of expression result with E. coli C41(DE3) [2] was “toxic”.

B2: PtNTT2(66-575): N-terminally truncated PtNTT2 variant, amino acids 1-65 removed, SEQ ID NO: 4 (protein, listed as Phaeodactylum tricornutum)
chain: MGGSTVAPTTPLATGGALRKVRQAVFPIYGNQEVTKFLLIGSIKFFIILALTLTRDTKDTLIVTQCGAEAIAFLKIYGVLPAATAFIALYSKMSNAMGKKMLFYSTCIPFFTFFGLFDVFIYPNAERLHPSLEAVQAILPGGAASGGMAVLAKIATHWTSALFYVMAEIYSSVSVGLLFWQFANDVVNVDQAKRFYPLFAQMSGLAPVLAGQYVVRFASKAVNFEASMHRLTAAVTFAGIMICIFYQLSSSYVERTESAKPAADNEQSIKPKKKKPKMSMVESGKFLASSQYLRLIAMLVLGYGLSINFTEIMWKSLVKKQYPDPLDYQRFMGNFSSAVGLSTCIVIFFGVHVIRLLGWKVGALATPGIMAILALPFFACILLGLDSPARLEIAVIFGTIQSLLSKTSKYALFDPTTQMAYIPLDDESKVKGKAAIDVLGSRIGKSGGSLIQQGLVFVFGNIINAAPVVGVVYYSVLVAWMSAAGRLSGLFQAQTEMDKADKMEAKTNKEK
For the molecule B2, the figures for the “uptake of [α-32P]-dATP” value with E. coli C41(DE3) [3] and with E. coli BL21(DE3) [4] were “reduced uptake” and “increased levels”, respectively. Moreover, the toxicity of expression entry in the data set on E. coli C41(DE3) [2] is listed as “lower toxicity relative to the full length PtNTT2”; in the data set with E. coli BL21(DE3) [1], “little increase in toxicity”.
